# Reference: patent US20210032365A1 (Chugai, published 2021)
# T1: human C1s (human, UniProt P09871 16-688)
# T1 construct: Analyte in the Biacore assays; also called hC1s; serum-derived human C1s (CompTech)
# T1 sequence: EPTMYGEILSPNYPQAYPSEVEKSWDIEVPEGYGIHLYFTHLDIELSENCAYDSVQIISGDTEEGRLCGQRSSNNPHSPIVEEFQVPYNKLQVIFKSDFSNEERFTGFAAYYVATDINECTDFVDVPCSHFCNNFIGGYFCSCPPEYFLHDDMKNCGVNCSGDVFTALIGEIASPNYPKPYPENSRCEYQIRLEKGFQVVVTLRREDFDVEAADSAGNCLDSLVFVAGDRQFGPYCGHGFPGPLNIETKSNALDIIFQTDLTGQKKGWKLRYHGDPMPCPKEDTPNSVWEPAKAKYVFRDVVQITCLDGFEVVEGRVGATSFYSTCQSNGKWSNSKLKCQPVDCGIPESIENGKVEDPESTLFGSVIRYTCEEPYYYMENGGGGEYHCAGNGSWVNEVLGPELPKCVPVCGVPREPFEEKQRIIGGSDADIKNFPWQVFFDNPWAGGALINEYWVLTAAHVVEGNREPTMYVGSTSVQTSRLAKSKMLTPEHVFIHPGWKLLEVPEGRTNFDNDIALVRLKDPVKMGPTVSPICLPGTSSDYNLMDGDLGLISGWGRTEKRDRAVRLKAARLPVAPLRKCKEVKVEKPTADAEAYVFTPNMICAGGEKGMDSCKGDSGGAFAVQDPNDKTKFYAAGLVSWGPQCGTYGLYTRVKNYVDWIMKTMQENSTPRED
# B1: C1_IPN92H0288-SG4GK/IPN93L0211-SK1 (antibody, human IgG4 S228P, kappa)
# heavy: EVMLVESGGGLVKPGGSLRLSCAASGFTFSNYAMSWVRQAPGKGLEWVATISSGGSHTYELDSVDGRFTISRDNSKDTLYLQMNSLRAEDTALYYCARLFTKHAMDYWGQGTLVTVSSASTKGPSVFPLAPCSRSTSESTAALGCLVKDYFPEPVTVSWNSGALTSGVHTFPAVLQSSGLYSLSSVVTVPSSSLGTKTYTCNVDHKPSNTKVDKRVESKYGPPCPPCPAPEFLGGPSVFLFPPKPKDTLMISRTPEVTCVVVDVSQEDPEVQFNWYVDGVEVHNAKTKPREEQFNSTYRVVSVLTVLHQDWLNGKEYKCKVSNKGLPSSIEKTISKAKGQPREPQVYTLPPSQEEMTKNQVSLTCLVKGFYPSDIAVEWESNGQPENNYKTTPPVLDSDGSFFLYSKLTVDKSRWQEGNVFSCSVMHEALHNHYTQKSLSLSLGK
# light: QIVLTQSPATLSLSPGERATLSCTASSEVSESYLHWYQQKPGKAPKLWIYSTSNLASGVPSRFSGSGSGTDYTLTISSLQPEDFATYYCHQYYRLHPITFGQGTKLEIKRTVAAPSVFIFPPSDEQLKSGTASVVCLLNNFYPREAKVQWKVDNALQSGNSQESVTEQDSKDSTYSLSSTLTLSKADYEKHKVYACEVTHQGLSSPVTKSFNRGEC
# notes: also called IPN92H0288/IPN93L0211
# B2: IPN009VH2/IPN93L0023-SG136 (antibody, human IgG1, kappa, name in Kabat numbering)
# heavy: EVMLVESGGGLVKPGGSLRLSCAASGFTFSNYAMSWVRQAPGKGLEWVATISSGGSHTYYLDSVKGRFTISRDNSKDTLYLQMNSLRAEDTALYYCARLFTGYAMDYWGQGTLVTVSSASTKGPSVFPLAPSSKSTSGGTAALGCLVKDYFPEPVTVSWNSGALTSGVHTFPAVLQSSGLYSLSSVVTVPSSSLGTQTYICNVNHKPSNTKVDKKVEPKSCDKTHTCPPCPAPELRRGPSVFLFPPKPKDTLMISRTPEVTCVVVDVSHEDPEVKFNWYVDGVEVHNAKTKPREEQYNSTYRVVSVLTVLHQDWLNGKEYKCKVSNKGLPSSIEKTISKAKGQPREPQVYTLPPSREEMTKNQVSLTCLVKGFYPSDIAVEWESNGQPENNYKTTPPVLDSDGSFFLYSKLTVDKSRWQQGNVFSCSVMHEALHNHYTQKSLSLSP
# light: QIVLTQSPATLSLSPGERATLSCTASSSVSSSYLHWYQQKPGKAPKLWIYSTSNLASGVPSRFSGSGSGTDYTLTISSLQPEDFATYYCHQYYRHPPITFGQGTKLEIKRTVAAPSVFIFPPSDEQLKSGTASVVCLLNNFYPREAKVQWKVDNALQSGNSQESVTEQDSKDCTYSLSSTLTLSKADYEKHKVYACEVTHQGLSSPVTKSFNRGEC
# notes: also called IPN009VH2/IPN93L0023 (lot PPU2043)
# B3: IPN92H0038/IPN93L0024-SG136 (antibody, human IgG1, kappa, name in Kabat numbering)
# heavy: EVMLVESGGGLVKPGGSLRLSCAASGFTFSNYAMSWVRQAPGKGLEWVATISSGGSHTYYLDSVKHRFTISRDNSKDTLYLQMNSLRAEDTALYYCARLFTGHAMDYWGQGTLVTVSSASTKGPSVFPLAPSSKSTSGGTAALGCLVKDYFPEPVTVSWNSGALTSGVHTFPAVLQSSGLYSLSSVVTVPSSSLGTQTYICNVNHKPSNTKVDKKVEPKSCDKTHTCPPCPAPELRRGPSVFLFPPKPKDTLMISRTPEVTCVVVDVSHEDPEVKFNWYVDGVEVHNAKTKPREEQYNSTYRVVSVLTVLHQDWLNGKEYKCKVSNKGLPSSIEKTISKAKGQPREPQVYTLPPSREEMTKNQVSLTCLVKGFYPSDIAVEWESNGQPENNYKTTPPVLDSDGSFFLYSKLTVDKSRWQQGNVFSCSVMHEALHNHYTQKSLSLSP
# light: QIVLTQSPATLSLSPGERATLSCTASSSVSSSYLHWYQQKPGKAPKLWIYSTSNLASGVPSRFSGSGSGTDYTLTISSLQPEDFATYYCHQYYRLHPITFGQGTKLEIKRTVAAPSVFIFPPSDEQLKSGTASVVCLLNNFYPREAKVQWKVDNALQSGNSQESVTEQDSKDCTYSLSSTLTLSKADYEKHKVYACEVTHQGLSSPVTKSFNRGEC
# notes: also called IPN92H0038/IPN93L0024 (lot PPU2045)
# B4: IPN92H0286/IPN93L0205-SG136 (antibody, human IgG1, kappa, name in Kabat numbering)
# heavy: EVMLVESGGGLVKPGGSLRLSCAASGFTFSNKAMSWVRQAPGKGLEWVATISSGGSHTYYLDSVKHRFTISRDNSKDTLYLQMNSLRAEDTALYYCARLFTGHAMDYWGQGTLVTVSSASTKGPSVFPLAPSSKSTSGGTAALGCLVKDYFPEPVTVSWNSGALTSGVHTFPAVLQSSGLYSLSSVVTVPSSSLGTQTYICNVNHKPSNTKVDKKVEPKSCDKTHTCPPCPAPELRRGPSVFLFPPKPKDTLMISRTPEVTCVVVDVSHEDPEVKFNWYVDGVEVHNAKTKPREEQYNSTYRVVSVLTVLHQDWLNGKEYKCKVSNKGLPSSIEKTISKAKGQPREPQVYTLPPSREEMTKNQVSLTCLVKGFYPSDIAVEWESNGQPENNYKTTPPVLDSDGSFFLYSKLTVDKSRWQQGNVFSCSVMHEALHNHYTQKSLSLSP
# light: QIVLTQSPATLSLSPGERATLSCTASSSVSSSRLHWYQQKPGKAPKLWIYSTSNLASGVPSRFSGSGSGTDYTLTISSLQPEDFATYYCHQYHRHPPITFGQGTKLEIKRTVAAPSVFIFPPSDEQLKSGTASVVCLLNNFYPREAKVQWKVDNALQSGNSQESVTEQDSKDCTYSLSSTLTLSKADYEKHKVYACEVTHQGLSSPVTKSFNRGEC
# notes: also called IPN92H0286/IPN93L0205 (lot PPU2048); IPN92H0286/IPN93L205-SG136
# Experiments:
# human C1s [1] = target: T1, human C1s; assay: SPR; KD at pH 5.8 (1.2 mM Ca) over KD at pH 7.4 (1.2 mM Ca)
# Protocol: (§1) All variants were transiently expressed and purified by the method described above. The binding affinity of each histidine-substituted variant at pH 7.4 and pH 5.8 was determined at 37 degrees C. using Biacore T200 instrument (GE Healthcare). Recombinant Protein A/G (Pierce) was immobilized onto all flow cells of a CM4 sensor chip using an amine coupling kit (GE Healthcare). Antibodies and analytes were prepared in 7(+) buffer (20 mM ACES, 150 mM NaCl, 1.2 mM CaCl2, 0.05% Tween 20, 0.005% NaN3, pH 7.4), 5(+) buffer (20 mM ACES, 150 mM NaCl, 1.2 mM CaCl2, 0.05% Tween 20, 0.005% NaN3, pH 5.8), or 5(−) buffer (20 mM ACES, 150 mM NaCl, 3 micro M CaCl2, 0.05% Tween 20, 0.005% NaN3, pH 5.8). Each antibody was captured onto the sensor surface by protein A/G. Antibody capture levels were aimed at 200 resonance unit (RU). Serum-derived human C1s (CompTech) or recombinant C1s prepared in EXAMPLE 1 was injected at 50 nM, followed by dissociation. The sensor surface was regenerated in each cycle with 10 mM Glycine-HCl, pH 1.5. […] The ratio of KD 5.8+ to KD 7.4+(“KD 5+/7+”) and that of KD 5.8− to KD 7.4+(“KD 5−/7+”) were calculated. When the KD 5+/7+ or KD 5−/7+ of a variant is larger than that of the parent antibody IPN009VH2-SG4GK/IPN009VK3-SK1, that variant is considered to be “pH”- or “pH and Ca”-dependent, respectively. When binding response in 5(+) buffer and/or in 5(−) buffer of a variant is much lower than that of IPN09VH2/IPN009VK3, that variant is also considered as “pH”- and/or “pH and Ca”-dependent. Therefore, such mutations are effective to generate “pH”- and/or “pH and Ca”-dependent antibody. To further enhance “pH” and/or “pH and Ca” dependency, a combination of histidine mutations was conducted. Antibodies with combinations of histidine mutations were evaluated using Biacore by the method described above.
# human C1s [2] = target: T1, human C1s; assay: SPR (Biacore T200, 37C), Ab captured on protein A/G; pH 7.4, 1.2 mM Ca; pH 7.4, 1.2 mM Ca
# Protocol: All variants were transiently expressed and purified by the method described above. The binding affinity of each histidine-substituted variant at pH 7.4 and pH 5.8 was determined at 37 degrees C. using Biacore T200 instrument (GE Healthcare). Recombinant Protein A/G (Pierce) was immobilized onto all flow cells of a CM4 sensor chip using an amine coupling kit (GE Healthcare). Antibodies and analytes were prepared in 7(+) buffer (20 mM ACES, 150 mM NaCl, 1.2 mM CaCl2, 0.05% Tween 20, 0.005% NaN3, pH 7.4), 5(+) buffer (20 mM ACES, 150 mM NaCl, 1.2 mM CaCl2, 0.05% Tween 20, 0.005% NaN3, pH 5.8), or 5(−) buffer (20 mM ACES, 150 mM NaCl, 3 micro M CaCl2, 0.05% Tween 20, 0.005% NaN3, pH 5.8). Each antibody was captured onto the sensor surface by protein A/G. Antibody capture levels were aimed at 200 resonance unit (RU). Serum-derived human C1s (CompTech) or recombinant C1s prepared in EXAMPLE 1 was injected at 50 nM, followed by dissociation. The sensor surface was regenerated in each cycle with 10 mM Glycine-HCl, pH 1.5. […] The ratio of KD 5.8+ to KD 7.4+(“KD 5+/7+”) and that of KD 5.8− to KD 7.4+(“KD 5−/7+”) were calculated. […] Antibodies with combinations of histidine mutations were evaluated using Biacore by the method described above.
# human C1s [3] = target: T1, human C1s; assay: SPR; KD at pH 5.8 (3 uM Ca) over KD at pH 7.4 (1.2 mM Ca)
# Protocol: as §1
# human C1s [4] = target: T1, human C1s; assay: SPR (Biacore T200, 37C), Ab captured on protein A/G; pH 5.8, 1.2 mM Ca; pH 5.8, 1.2 mM Ca
# human C1s [5] = target: T1, human C1s; assay: SPR (Biacore T200, 37C), Ab captured on protein A/G; pH 7.4, 1.2 mM Ca
# Protocol: as §1
# human C1s [6] = target: T1, human C1s; assay: SPR (Biacore T200, 37C), Ab captured on protein A/G; pH 5.8, 3 uM Ca
# Protocol: as §1
# human C1s [7] = target: T1, human C1s; assay: SPR (Biacore T200, 37C), Ab captured on protein A/G; pH 5.8, 1.2 mM Ca
# Protocol: as §1
# human C1s [8] = target: T1, human C1s; assay: SPR (Biacore T200, 37C), Ab captured on protein A/G, serum C1s 12.5 and 50 nM; pH 7.4, 1.2 mM Ca
# human C1s [9] = target: T1, human C1s; assay: SPR; koff (5.8+ of 775+): extra dissociation phase at pH 5.8 (1.2 mM Ca) right after the pH 7.4 dissociation, Scrubber fit
# human C1s [10] = target: T1, human C1s; assay: SPR; KD at pH 5.8 over KD at pH 7.4, both 1.2 mM Ca
# human C1s [11] = target: T1, human C1s; assay: SPR (Biacore T200, 37C), Ab captured on protein A/G, serum C1s 50 and 200 nM; pH 5.8, 1.2 mM Ca
# Protocol: (§2) The binding affinity of all histidine-substituted variants at pH 7.4 and pH 5.8 were determined at 37 degrees C. using Biacore T200 instrument (GE Healthcare). Recombinant Protein A/G (Pierce) was immobilized onto all flow cells of a CM4 sensor chip using amine coupling kit (GE Healthcare). Antibodies and analytes were prepared in 7(+) buffer (20 mM ACES, 150 mM NaCl, 1.2 mM CaCl2, 0.05% Tween 20, 0.005% NaN3, pH 7.4) or 5(+) buffer (20 mM ACES, 150 mM NaCl, 1.2 mM CaCl2), 0.05% Tween 20, 0.005% NaN3, pH 5.8). Each antibody was captured onto the sensor surface by protein A/G. Antibody capture levels were aimed at 200 resonance unit (RU). […] Sensor surface was regenerated each cycle with 10 mM Glycine-HCl pH 1.5. […] An additional dissociation phase at pH 5.8 was integrated immediately after the dissociation phase at pH 7.4. This dissociation rate in 5(+) buffer was determined by processing and fitting data using Scrubber 2.0 (BioLogic Software) curve fitting software.
# human C1s [12] = target: T1, human C1s; assay: SPR (Biacore T200, 37C), Ab captured on protein A/G, serum C1s 200 and 800 nM; pH 5.8, 1.2 mM Ca; value marked 'Not Adopted due to low binding response at pH 5.8'
# Protocol: as §2
KD 5(+)/7(+) (human C1s [1]),koff (human C1s [2]) [s⁻¹],KD 5(-)/7(+) (human C1s [3]),kon (human C1s [4]) [M⁻¹ s⁻¹],kon (human C1s [5]) [M⁻¹ s⁻¹],koff (human C1s [6]) [s⁻¹],kon (human C1s [6]) [M⁻¹ s⁻¹],koff (human C1s [7]) [s⁻¹],Kd (human C1s [8]) [nM],koff (human C1s [8]) [s⁻¹],koff (human C1s [9]) [s⁻¹],KD (5.8+)/KD (7.4+) (human C1s [10]),Kd (human C1s [11]) [nM],Kd (human C1s [12]) [nM],koff (human C1s [12]) [s⁻¹],Binder
9.9,0.00088,6.23,1.77e+06,527000,0.00504,485000,0.0292,,,,,,,,B1
,,,,,,,,2.77,0.000628,0.000691,0.9,2.48,,,B2
,,,,,,,,1.2,0.000461,0.00354,8.9,10.7,,,B3
,,,,,,,,1.43,0.000822,0.0134,,,8530,0.0237,B4
